{
  "source": "patent US20080311599",
  "proteins": {"B1": {"name": "recombinant active caspase-8 (protein)", "chain 1": "EELCGVMTISDSPREQDSESQTLDKVYQMKSKPRGYCLIINNHNFAKAREKVPKLHSIRDRNGTHLDAGALTTTFEELHFEIKPHHDCTVEQIYEILKIYQLMDHSNMDCFICCILSHGDKGIIYGTDGQEAPIYELTSQFTGLKCPSLAGKPKVFFI", "chain 2": "MDFSRNLYDIGEQLDSEDLASLKFLSLDYIPQRKQEPIKDALMLFQRLQEKRMLEESNLSFLKELLFRINRLDLLITYLNTRKEEMERELQTPGRAQISAYRFHFCRMSWAEANSQCQTQSVPFWRRVDHLLIRVMLYQISEEVSRSELRSFKFLLQEEISKCKLDDDMNLLDIFIEMEKRVILGEGKLDILKRVCAQINKSLLKIINDYEEFSKGEELCGVMTISDSPREQDSESQTLDKVYQMKSKPRGYCLIINNHNFAKAREKVPKLHSIRDRNGTHLDAGALTTTFEELHFEIKPHHDCTVEQIYEILKIYQLMDHSNMDCFICCILSHGDKGIIYGTDGQEAPIYELTSQFTGLKCPSLAGKPKVFFIQACQGDNYQKGIPVETDSEEQPYLEMDLSSPQTRYIPDEADFLLGMATVNNCVSYRNPAEGTWYIQSLCQSLRERCPRGDDILTILTEVNYEVSNKDDKKNMGKQMPQPTFTLRKKLVFPSD"}},
  "key": {"p72 (1-600)": {"biological_target": "T1, p72 (1-600)", "T1 chain": "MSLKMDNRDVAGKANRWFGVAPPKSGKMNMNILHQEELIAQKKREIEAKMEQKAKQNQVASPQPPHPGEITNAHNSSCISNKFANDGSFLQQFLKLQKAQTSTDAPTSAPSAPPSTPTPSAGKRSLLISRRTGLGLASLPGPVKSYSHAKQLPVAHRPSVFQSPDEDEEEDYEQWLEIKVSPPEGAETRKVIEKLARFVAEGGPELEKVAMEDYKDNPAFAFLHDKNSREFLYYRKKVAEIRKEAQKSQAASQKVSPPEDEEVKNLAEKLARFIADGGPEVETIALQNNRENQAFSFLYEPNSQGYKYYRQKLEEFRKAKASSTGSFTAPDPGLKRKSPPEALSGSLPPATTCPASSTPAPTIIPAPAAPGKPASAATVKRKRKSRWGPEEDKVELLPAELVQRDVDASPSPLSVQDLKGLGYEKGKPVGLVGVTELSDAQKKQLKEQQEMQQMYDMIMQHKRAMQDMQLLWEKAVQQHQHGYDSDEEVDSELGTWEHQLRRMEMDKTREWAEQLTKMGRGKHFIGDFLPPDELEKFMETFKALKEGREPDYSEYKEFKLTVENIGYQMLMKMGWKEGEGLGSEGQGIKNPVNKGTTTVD"}, "p72 (D600E)": {"biological_target": "T2, p72 (D600E)", "T2 chain": "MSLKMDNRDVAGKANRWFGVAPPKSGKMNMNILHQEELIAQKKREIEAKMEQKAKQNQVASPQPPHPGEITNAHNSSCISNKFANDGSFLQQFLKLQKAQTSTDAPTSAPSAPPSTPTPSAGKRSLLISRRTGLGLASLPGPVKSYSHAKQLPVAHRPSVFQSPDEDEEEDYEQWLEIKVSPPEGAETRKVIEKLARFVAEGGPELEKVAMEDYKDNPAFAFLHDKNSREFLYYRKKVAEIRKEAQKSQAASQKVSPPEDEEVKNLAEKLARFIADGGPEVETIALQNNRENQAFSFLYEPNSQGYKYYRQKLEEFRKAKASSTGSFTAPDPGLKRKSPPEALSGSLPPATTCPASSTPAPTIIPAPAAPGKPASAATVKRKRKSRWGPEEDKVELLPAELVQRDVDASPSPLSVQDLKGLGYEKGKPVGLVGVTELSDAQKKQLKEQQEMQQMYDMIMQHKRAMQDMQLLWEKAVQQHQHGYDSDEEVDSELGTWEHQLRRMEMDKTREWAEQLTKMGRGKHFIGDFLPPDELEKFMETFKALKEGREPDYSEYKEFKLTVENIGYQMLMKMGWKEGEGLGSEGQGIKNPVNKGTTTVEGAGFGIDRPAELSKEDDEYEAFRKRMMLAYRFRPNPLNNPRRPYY"}, "p72": {"biological_target": "T3, p72", "T3 chain": "T2 chain with E600D"}},
  "note": "Positions count from the first letter of the chain named.",
  "data": [
    {"protein": "B1", "values": [
      {"measurement": "cleavage of 35S-labelled p72 mutant in vitro, SDS-PAGE and phospho-imaging", "setting": "p72 (1-600)", "value": "The p72 1-600 mutant co-migrates with the 68 kDa fragment produced after cleavage of the wild type p72 and is not further cleaved by addition of caspase-8 (lanes 2 and 5)"},
      {"measurement": "cleavage of 35S-labelled p72 mutant in vitro, SDS-PAGE and phospho-imaging", "setting": "p72 (D600E)", "value": "the same protein profile of p72 D600E mutant is observed in the presence or absence of caspase-8"},
      {"measurement": "cleavage of 35S-labelled p72 in vitro, SDS-PAGE and phospho-imaging", "setting": "p72", "value": "This band disappears after addition of activated caspase-8 for 1 hour and a new smaller fragment corresponding to 68 kDa appears (lane 4)"}
    ]}
  ]
}
